{
  "source": "paper PMC11436948",
  "about": "(Nature Communications, 2024)",
  "key": {"[1]": {"biological_target": "^bioχψδγ3δ’ clamp loader complex containing N-terminally biotinylated χ (E. coli) (UniProt P28905)", "assay": "SPR"}, "[2]": {"biological_target": "^bioχψδγ3δ’ clamp loader complex containing N-terminally biotinylated χ (E. coli) (UniProt P28905)", "assay": "SPR", "remark": "listed apart in the source"}, "cryo-EM structure": {"biological_target": "the molecule itself", "assay": "cryo-EM structure"}},
  "note": "Read-outs that look alike come from different tables or passages of the source.",
  "data": [
    {"molecule": "E. coli β2 sliding clamp (from UniProt P0A988) (natural protein)", "values": [
      {"measurement": "Kd", "setting": "[1]", "value": 400, "unit": "nM"},
      {"measurement": "Kd", "setting": "[2]", "value": 13.3, "unit": "nM"}
    ]},
    {"molecule": "γ subunit of the E. coli clamp loader complex (natural protein) MSYQVLARKWRPQTFADVVGQEHVLTALANGLSLGRIHHAYLFSGTRGVGKTSIARLLAKGLNCETGITATPCGVCDNCREIEQGRFVDLIEIDAASRTKVEDTRDLLDNVQYAPARGRFKVYLIDEVHMLSRHSFNALLKTLEEPPEHVKFLLATTDPQKLPVTILSRCLQFHLKALDVEQIRHQLEHILNEEHIAHEPRALQLLARAAEGSLRDALSLTDQAIASGDGQVSTQAVSAMLGTLDDDQALSLVEAMVEANGERVMALINEAAARGIEWEALLVEMLGLLHRIAMVQLSPAALGNDMAAIELRMRELARTIPPTDIQLYYQTLLIGRKELPYAPDRRMGVEMTLLRALAFHPRMPLPEPEVPRQSFAPVAPTAVMTPTQVPPQPQSAPQQAPTVPLPETTSQVLAARQQLQRVQGATKAKKE", "values": [
      {"measurement": "binding result", "setting": "cryo-EM structure", "value": "binds"}
    ]}
  ]
}
